Results reported in paper PMC6077193, “Intravascular Schistosoma mansoni Cleave the Host Immune and Hemostatic Signaling Molecule Sphingosine-1-Phosphate via Tegumental Alkaline Phosphatase” (Frontiers in Immunology, 2018).

Experiments:
Assay in all cases: purified protein
[1] = system: Nc1ccn([C@@H]2O[C@H](COP(=O)(O)O)[C@@H](O)[C@H]2O)c(=O)n1; conditions: 50 mM Tris-HCl pH 9, 5 mM KCl, 135 mM NaCl, 10 mM glucose, 10 mM MgCl2, 0-2 mM substrate
[2] = system: O=[N+]([O-])c1ccc(OP(=O)(O)O)cc1; conditions: 50 mM Tris-HCl pH 9, 5 mM KCl, 135 mM NaCl, 10 mM glucose, 10 mM MgCl2
[3] = system: Nc1ncnc2c1ncn2[C@@H]1O[C@H](COP(=O)(O)O)[C@@H](O)[C@H]1O; conditions: 50 mM Tris-HCl pH 9, 5 mM KCl, 135 mM NaCl, 10 mM glucose, 10 mM MgCl2, 0-2 mM substrate
[4] = system: Cc1cn([C@H]2C[C@H](O)[C@@H](COP(=O)(O)O)O2)c(=O)[nH]c1=O; conditions: 50 mM Tris-HCl pH 9, 5 mM KCl, 135 mM NaCl, 10 mM glucose, 10 mM MgCl2, 0-2 mM substrate
[5] = system: Nc1nc2c(ncn2[C@@H]2O[C@H](COP(=O)(O)O)[C@@H](O)[C@H]2O)c(=O)[nH]1; conditions: 50 mM Tris-HCl pH 9, 5 mM KCl, 135 mM NaCl, 10 mM glucose, 10 mM MgCl2, 0-2 mM substrate

Work on “rSmAP (recombinant Schistosoma mansoni alkaline phosphatase) (Schistosoma mansoni)” yielded a Km [1] of 630 ± 20 µM, a Km [2] of 288 ± 12 µM and a Km [3] of 650 µM. The Km [4] was 595 µM and the Km [5] was 640 ± 11 µM.
